Experimental data: patent publication US20240376155A1, “NOVEL COMPOUNDS AND COMPOSITIONS FOR TARGETED THERAPY OF RENAL CANCERS” (SHANGHAI MICURX PHARMACEUTICAL CO., LTD., priority 2021, published 2024)
Read-outs that look alike come from different tables or passages of the source. Values belong to the compound of their own block, whether it stands above or below them. Bridge positions count the residues as written; N and C are the ends. Square brackets hold non-standard residues; d marks the D form. Peptide text beside a SMILES is read from it. * marks the point of attachment. ξ: configuration not given here. X1 = CNC(=O)c1ccccc1Sc1ccc2c(/C=C/c3ccccn3)nn(C(=O)N(CCNC(=O)[C@@H](N)CCC(=O)O)CCC(=O)*)c2c1; X3 = CNC(=O)c1ccccc1Sc1ccc2c(/C=C/c3ccccn3)nn(C(=O)N(CCOC(=O)[C@@H](N)CCC(=O)O)CCC(=O)*)c2c1; X2 = CNC(=O)c1ccccc1Sc1ccc2c(/C=C/c3ccccn3)nn(C(=O)N(CCNC(=O)CC[C@H](N)C(=O)O)CCC(=O)*)c2c1; Thr(3ξ) = CC(O)[C@H](N)C(=O)O; Dab = NCC[C@H](N)C(=O)O; ξL = CC(C)CC(N)C(=O)O

Key:
[1] = for Blood Plasma Conc. of axitinib / Blood Plasma Conc. of released axitinib / Kidney Tissue Conc. of released axitinib: mouse; for Blood Plasma Conc. of axitinib: oral gavage, single dose 30 mg/kg; for axitinib level in kidney tissues vs from axitinib itself: 3 mg/kg compound vs 30 mg/kg oral axitinib; for Blood Plasma Conc. of released axitinib / Kidney Tissue Conc. of released axitinib: injection, single dose 3 mg/kg; for Kidney Tissue Conc. of released axitinib: corrected for kidney tissue density
[2] = axitinib therapy, human use; cited from earlier work
[3] = In vitro antibacterial activity (MIC); format: cell-based; details: relative to polymyxin antibiotics such as polymyxin B and colistin
[4] = tested on: HK-2 cell line; assay: HK-2 cytotoxicity assay; format: cell-based, human
Source text: The assay is analogously to that described, for example, by Keirstead et al. in Toxicol. Sci. 2014, vol. 137, pp. 278-291.

[5] = tested on: luciferase-expressing A498 renal cancer cell line (A498-luc); details: 12 mg/kg/day ip vs axitinib at 30 mg/kg/day
Method: An illustrative efficacy study for the compounds described herein was investigated in an orthotopic mouse model. In this model, a luciferase-expressing A498 renal cancer cell line (A498-luc) was used. The cancer cells were implanted into a kidney capsule and the tumor growth and effect were monitored by the image size using IVIS Lumina III (Perkin Elmer) and mouse body weight changes. Specifically, mice were anesthetized by SC injection of Zolet™ m 50 (Virbac S. A.) after 24 h fasting. The skin of anesthetized mice was sterilized with iodine followed by alcohol. 4×10^6 luciferase-expressing A498-luc cells were implanted in the left kidney by insulin syringe. The skin incisions were closed with autosuture clip. The tumor growths were monitored by image analysis. […] At 10 mins after the luciferin injection, the mice were imaged (once a week). Living image software (Perkin Elmer) is used to compute regions of interest (ROI) and integrate the total bioluminescence signal in each ROI. Bioluminescent signals (photos/s) from ROI were quantified and used as an indicator of tumor growth and antitumor activity. Body weight of all mice were measured twice a week throughout the study.

[6] = 14-days repeat-dose mouse tolerability test; format: in vivo; details: dose of at least 18 mg/kg/day
[7] = in vivo; details: mouse, 3 mg/kg; for level at 3 h: iv
Source text: Preferential accumulation of compounds provided herein in kidneys (or near the site of a kidney cancer) may be evaluated by pharmacokinetic (PK) tests, such as in a standard rat PK test.

- Blood Plasma Conc. of axitinib ([1]; T = 3 h): T = 3 h: 397.3 ng/mL
- Blood Plasma Conc. of axitinib ([1]; T = 6 h): T = 6 h: 75.6 ng/mL
- Blood Plasma Conc. of axitinib ([1]; T = 12 h): T = 12 h: 11.4 ng/mL
- Blood Plasma Conc. of axitinib ([1]; T = 24 h): T = 24 h: BLQ^d
Structure (SMILES): CNC(=O)c1ccccc1Sc1ccc2c(/C=C/c3ccccn3)n[nH]c2c1 [Axitinib, N-methyl-2-[[3-[(E)-2-pyridin-2-ylethenyl]-1H-indazol-6-yl]sulfanyl]benzamide, reference compound]
- incidence of hypertensive adverse effects [2]: 40-64%

Structure (SMILES): CNC(=O)c1ccccc1Sc1ccc2c(/C=C/c3ccccn3)nn(C(=O)N(CCNC(=O)[C@@H](N)CCC(=O)O)CCC(=O)N[C@H](C(=O)N[C@@H](CCN)C(=O)N[C@H]3CCNC(=O)[C@H](C(C)O)NC(=O)[C@H](CCN)NC(=O)[C@H](CCN)NC(=O)[C@H](CC(C)C)NC(=O)[C@@H](Cc4ccccc4)NC(=O)[C@H](CCN)NC3=O)C(C)O)c2c1 (stereo partly shown) [Example 1] (X1-[Thr(3ξ)][Dab][Dab][Dab][dF]L[Dab][Dab][Thr(3ξ)]; lactam 3-C)
- axitinib level in kidney tissues vs from axitinib itself ([1]; at 3 h): 6.50 fold
- axitinib level in kidney tissues vs from axitinib itself ([1]; at 6 h): about 15 fold
- Blood Plasma Conc. of released axitinib ([1]; T = 3 h): T = 3 h: 9.7 ng/mL
- Kidney Tissue Conc. of released axitinib ([1]; T = 3 h): T = 3 h: 1955.3 ng/mL
- Blood Plasma Conc. of released axitinib ([1]; T = 6 h): T = 6 h: 4.0 ng/mL
- Kidney Tissue Conc. of released axitinib ([1]; T = 6 h): T = 6 h: 1448.5 ng/mL
- Blood Plasma Conc. of released axitinib ([1]; T = 12 h): T = 12 h: BLQ
- Kidney Tissue Conc. of released axitinib ([1]; T = 12 h): T = 12 h: 1437.9 ng/mL
- Blood Plasma Conc. of released axitinib ([1]; T = 24 h): T = 24 h: BLQ
- antibacterial activity (MIC, minimum inhibitory concentration) [3]: minimized antibacterial activity
- In vitro human HK-2 assay IC50 ([4]; HK-2 immortalized proximal tubule cells from normal human kidney): >100 µg/mL
- fold less active than axitinib in HK-2 cytotoxicity assay ([4]; vs axitinib (free drug form)): 2-3 fold
- body weight change (loss in weight) during efficacy study [5]: minimized loss in weight
- tolerability [6]: well-tolerated
- Kidney-to-Blood Conc. Ratio ([7]; T = 3 h after injection): 63
- level at 3 h ([7]; kidney): 563 ng/mL
- level at 3 h ([7]; plasma): 9 ng/mL

Structure (SMILES): CNC(=O)c1ccccc1Sc1ccc2c(/C=C/c3ccccn3)nn(C(=O)N(CCNC(=O)[C@@H](N)CCC(=O)O)CCC(=O)N[C@H]3CCNC(=O)[C@H]([C@@H](C)O)NC(=O)[C@H](CCN)NC(=O)[C@H](CCN)NC(=O)C(CC(C)C)NC(=O)[C@@H](Cc4ccccc4)NC(=O)[C@H](CCN)NC3=O)c2c1 (stereo partly shown) [Example 2] (X1-[Dab][Dab][dF][ξL][Dab][Dab]T; lactam 1-C)
- Blood Plasma Conc. of released axitinib ([1]; T = 3 h): T = 3 h: 3.3 ng/mL
- Kidney Tissue Conc. of released axitinib ([1]; T = 3 h): T = 3 h: 5140 ng/mL
- Blood Plasma Conc. of released axitinib ([1]; T = 6 h): T = 6 h: BLQ
- Kidney Tissue Conc. of released axitinib ([1]; T = 6 h): T = 6 h: 4630 ng/mL

Structure (SMILES): CNC(=O)c1ccccc1Sc1ccc2c(/C=C/c3ccccn3)nn(C(=O)N(CCOC(=O)[C@@H](N)CCC(=O)O)CCC(=O)N[C@H]3CCNC(=O)[C@H]([C@@H](C)O)NC(=O)[C@H](CCN)NC(=O)[C@H](CCN)NC(=O)C(CC(C)C)NC(=O)[C@@H](Cc4ccccc4)NC(=O)[C@H](CCN)NC3=O)c2c1 (stereo partly shown) [Example 7] (X3-[Dab][Dab][dF][ξL][Dab][Dab]T; lactam 1-C)
- Blood Plasma Conc. of released axitinib ([1]; T = 3 h): T = 3 h: 14.5 ng/mL
- Kidney Tissue Conc. of released axitinib ([1]; T = 3 h): T = 3 h: 4280 ng/mL
- Blood Plasma Conc. of released axitinib ([1]; T = 6 h): T = 6 h: BLQ
- Kidney Tissue Conc. of released axitinib ([1]; T = 6 h): T = 6 h: 4860 ng/mL

Structure (SMILES): CNC(=O)c1ccccc1Sc1ccc2c(/C=C/c3ccccn3)nn(C(=O)N(CCNC(=O)CC[C@H](N)C(=O)O)CCC(=O)N[C@H](C(=O)N[C@@H](CCN)C(=O)N[C@H]3CCNC(=O)[C@H]([C@@H](C)O)NC(=O)[C@H](CCN)NC(=O)[C@H](CCN)NC(=O)[C@H](CC(C)C)NC(=O)[C@@H](Cc4ccccc4)NC(=O)[C@H](CCN)NC3=O)[C@@H](C)O)c2c1 [Example 9, reference compound] (X2-T[Dab][Dab][Dab][dF]L[Dab][Dab]T; lactam 3-C)
- Blood Plasma Conc. of released axitinib ([1]; T = 3 h): T = 3 h: 14.9 ng/mL
- Kidney Tissue Conc. of released axitinib ([1]; T = 3 h): T = 3 h: 371.6 ng/mL
- Blood Plasma Conc. of released axitinib ([1]; T = 6 h): T = 6 h: BLQ
- Kidney Tissue Conc. of released axitinib ([1]; T = 6 h): T = 6 h: 28.8 ng/mL
